We go through 53 substances from the supplement of paper PMC10598134.

± gives the standard deviation.

The data set can be described thus: collision cross section of modified peptide (TIMS, N2, iRT-aligned); higher = larger / more extended gas-phase ion. In short, it runs like this:
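Values are averages of 1–3 technical replicates of the most abundant feature for each charge state. Collision cross section was obtained from the Mason-Schamp equation after 1/K0 calibration with three reference ions and run-wise alignment to the median iRT peptide deviation. Synthetic peptide pools (iRT standard spiked 1:40) were separated on a 120-min nanoflow C18 gradient at 60 °C, analysed on a timsTOF Pro/HT (dda-PASEF, nitrogen, ~2.4 mbar) and identified with MaxQuant.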

Setting [1] is: charge state: 2, modification: Succinyl.
Setting [2] is: charge state: 2, modification: Trimethyl (K).
Where [3] appears, read: charge state: 3, modification: Trimethyl (K).
Where [4] appears, read: charge state: 2, modification: hydroxyisobutyryl.
The mark [5] stands for this setting: charge state: 2, modification: Acetyl (K).
[6] abbreviates: charge state: 3, modification: Acetyl (K).
[7] abbreviates: charge state: 2, modification: Butyryl.
Setting [8] is: charge state: 3, modification: Butyryl.
Where [9] appears, read: charge state: 2, modification: Crotonyl.
Setting [10] is: charge state: 3, modification: Crotonyl.
The mark [11] stands for this setting: charge state: 2, modification: Dimethyl (K).
[12] abbreviates: charge state: 3, modification: Dimethyl (K).
The mark [13] stands for this setting: charge state: 2, modification: Formyl.
The mark [14] stands for this setting: charge state: 3, modification: Formyl.
The mark [15] stands for this setting: charge state: 2, modification: Glutarylation.
The mark [16] stands for this setting: charge state: 3, modification: Glutarylation.
The mark [17] stands for this setting: charge state: 2, modification: GlyGly (K).
Where [18] appears, read: charge state: 3, modification: GlyGly (K).
Where [19] appears, read: charge state: 2, modification: Malonyl.
Setting [20] is: charge state: 2, modification: Methyl (K).
The mark [21] stands for this setting: charge state: 3, modification: Methyl (K).
The mark [22] stands for this setting: charge state: 3, modification: Succinyl.
The mark [23] stands for this setting: charge state: 3, modification: hydroxyisobutyryl.
Setting [24] is: charge state: 2, modification: Hydroxyproline.
[25] abbreviates: charge state: 3, modification: Hydroxyproline.

Consider VNALKNLQVK [_VNALK(Propionyl)NLQVK_], for which the collision cross section (charge state: 2, modification: Propionyl) turned out to be 372.11 ± 0.65 Å². VNALKNLQVK [_VNALK(Succinyl)NLQVK_] came in with a collision cross section under setting [1] of 370.5 ± 1.8 Å². In the case of “VNALKNLQVK [_VNALK(Trimethyl (K))NLQVK_]”, the collision cross section under setting [2] stood at 379.91 ± 0.019 Å² and the collision cross section under setting [3] is 418.46 ± 2.4 Å². As for “VNALKNLQVK [_VNALK(hydroxyisobutyryl)NLQVK_]”, the collision cross section under setting [4] is reported as 374.85 ± 0.8 Å². Take “VNIGQGSHPQKVK [_VNIGQGSHPQK(Acetyl (K))VK_]”: the collision cross section reads like this: under setting [5], 426.92 ± 2.1 Å²; under setting [6], 478.98 ± 3.2 Å².

Consider “VNIGQGSHPQKVK [_VNIGQGSHPQK(Butyryl)VK_]”, for which the collision cross section is, setting by setting: under setting [7], 432.28 ± 0.24 Å²; under setting [8], 485.89 ± 2.6 Å². As for “VNIGQGSHPQKVK [_VNIGQGSHPQK(Crotonyl)VK_]”, the collision cross section was 430.6 ± 0.84 Å² under setting [9] and 487.14 ± 1.3 Å² under setting [10]. Consider “VNIGQGSHPQKVK [_VNIGQGSHPQK(Dimethyl (K))VK_]”, for which the collision cross section is 407.47 ± 1.1 Å² under setting [11] and 469.28 Å² under setting [12]. As for VNIGQGSHPQKVK [_VNIGQGSHPQK(Formyl)VK_], the collision cross section is given as 425.2 ± 1.4 Å² under setting [13] and 472.74 ± 2.1 Å² under setting [14].

With “VNIGQGSHPQKVK [_VNIGQGSHPQK(Gluratylation)VK_]”, the collision cross section reads like this: under setting [15], 424.75 ± 1.8 Å²; under setting [16], 494.72 ± 8.3 Å².

For “VNIGQGSHPQKVK [_VNIGQGSHPQK(GlyGly (K))VK_]”, the collision cross section is, setting by setting: under setting [17], 422.43 ± 1.1 Å²; under setting [18], 490.21 ± 0.72 Å².

Substance “VNIGQGSHPQKVK [_VNIGQGSHPQK(Malonyl)VK_]” had a collision cross section under setting [19] of 424.04 ± 0.57 Å². On to “VNIGQGSHPQKVK [_VNIGQGSHPQK(Methyl (K))VK_]”, for which the collision cross section is listed as 409.02 ± 0.54 Å² under setting [20] and 465.41 ± 17 Å² under setting [21].

“VNIGQGSHPQKVK [_VNIGQGSHPQK(Propionyl)VK_]” had a collision cross section (charge state: 3, modification: Propionyl) of 485.17 ± 0.74 Å². Regarding “VNIGQGSHPQKVK [_VNIGQGSHPQK(Succinyl)VK_]”, the collision cross section turned out to be 423.92 ± 1.1 Å² under setting [1] and 481.33 ± 2 Å² under setting [22].

As for “VNIGQGSHPQKVK [_VNIGQGSHPQK(Trimethyl (K))VK_]”, the collision cross section is 405.12 ± 1.9 Å² under setting [2] and 473.39 ± 2.7 Å² under setting [3]. For “VNIGQGSHPQKVK [_VNIGQGSHPQK(hydroxyisobutyryl)VK_]”, the collision cross section was found to be 435.4 ± 0.33 Å² under setting [4] and 488.96 ± 2.8 Å² under setting [23]. As for “VNVEAPDVNLEGLGGKLK [_VNVEAPDVNLEGLGGK(Acetyl (K))LK_]”, the collision cross section reads like this: under setting [5], 460.53 ± 2.8 Å²; under setting [6], 542.09 Å². On to “VNVEAPDVNLEGLGGKLK [_VNVEAPDVNLEGLGGK(Butyryl)LK_]”, for which the collision cross section runs as follows: under setting [7], 466.95 ± 0.75 Å²; under setting [8], 548.3 ± 0.14 Å². As to “VNVEAPDVNLEGLGGKLK [_VNVEAPDVNLEGLGGK(Crotonyl)LK_]”, the collision cross section under setting [9] is 459.79 Å².

Turning to “VNVEAPDVNLEGLGGKLK [_VNVEAPDVNLEGLGGK(Dimethyl (K))LK_]”, the collision cross section is reported as 464.65 Å² under setting [11] and 539.12 ± 0.61 Å² under setting [12]. Substance “VNVEAPDVNLEGLGGKLK [_VNVEAPDVNLEGLGGK(Formyl)LK_]” returned a collision cross section under setting [13] of 459.19 ± 1.2 Å². As to “VNVEAPDVNLEGLGGKLK [_VNVEAPDVNLEGLGGK(Gluratylation)LK_]”, the collision cross section stood at 464.05 ± 2.1 Å² under setting [15] and 550.01 Å² under setting [16]. With “VNVEAPDVNLEGLGGKLK [_VNVEAPDVNLEGLGGK(GlyGly (K))LK_]”, the collision cross section is, setting by setting: under setting [17], 470.77 ± 1.4 Å²; under setting [18], 551.19 ± 1.1 Å². As to “VNVEAPDVNLEGLGGKLK [_VNVEAPDVNLEGLGGK(Malonyl)LK_]”, the collision cross section under setting [19] is on record as 463.09 ± 1.4 Å². Take “VNVEAPDVNLEGLGGKLK [_VNVEAPDVNLEGLGGK(Methyl (K))LK_]”: the collision cross section is, setting by setting: under setting [20], 464.13 ± 2.6 Å²; under setting [21], 541.64 ± 0.51 Å².

Regarding “VNVEAPDVNLEGLGGKLK [_VNVEAPDVNLEGLGGK(Succinyl)LK_]”, the collision cross section by setting is: under setting [1], 466.17 ± 1.4 Å²; under setting [22], 548.55 ± 1.1 Å². For the substance “VNVEAPDVNLEGLGGKLK [_VNVEAPDVNLEGLGGK(Trimethyl (K))LK_]”, the collision cross section turned out to be 469.62 ± 0.99 Å² under setting [2] and 545.57 ± 1.8 Å² under setting [3]. With “VNVEAPDVNLEGLGGKLK [_VNVEAPDVNLEGLGGK(hydroxyisobutyryl)LK_]”, the collision cross section under setting [4] is 461.55 ± 2 Å² and the collision cross section under setting [23] worked out at 550.67 ± 0.8 Å².

For “VPGALAAAKAAK [_VP(Hydroxyproline)GALAAAKAAK_]”, the collision cross section runs as follows: under setting [24], 368.8 ± 0.56 Å²; under setting [25], 444.57 ± 2.8 Å². In the case of “VPGVGLPGVYPGGVLPGAR [_VPGVGLPGVYPGGVLP(Hydroxyproline)GAR_]”, the collision cross section by setting is: under setting [24], 432.24 ± 0.28 Å²; under setting [25], 534.68 ± 3 Å². Take “VPQAQPTKPALK [_VPQAQPT(HexNAc (ST))KPALK_]”: the collision cross section came to 409.35 ± 0.62 Å² (charge state: 2, modification: HexNAc (ST)) and 481.8 ± 0.17 Å² (charge state: 3, modification: HexNAc (ST)).

As for “VPTTEKPTVTVNFR [_VPTTEK(Acetyl (K))PTVTVNFR_]”, the collision cross section by setting is: under setting [5], 421.49 ± 1.9 Å²; under setting [6], 507.52 ± 1 Å². “VPTTEKPTVTVNFR [_VPTTEK(Butyryl)PTVTVNFR_]”: the collision cross section runs as follows: under setting [7], 428.57 ± 0.24 Å²; under setting [8], 508.36 ± 2.4 Å². Take “VPTTEKPTVTVNFR [_VPTTEK(Crotonyl)PTVTVNFR_]”: the collision cross section under setting [9] was 427.61 ± 0.55 Å² and the collision cross section under setting [10] was 510.39 Å². Under setting [12], “VPTTEKPTVTVNFR [_VPTTEK(Dimethyl (K))PTVTVNFR_]” showed a collision cross section of 496.28 ± 1.7 Å². Regarding “VPTTEKPTVTVNFR [_VPTTEK(Formyl)PTVTVNFR_]”, the collision cross section runs as follows: under setting [13], 425.05 ± 5 Å²; under setting [14], 502.93 ± 1.3 Å². As to “VPTTEKPTVTVNFR [_VPTTEK(Gluratylation)PTVTVNFR_]”, the collision cross section under setting [15] is on record as 428.25 ± 0.47 Å² and the collision cross section under setting [16] was 516.1 ± 2.5 Å². Regarding “VPTTEKPTVTVNFR [_VPTTEK(GlyGly (K))PTVTVNFR_]”, the collision cross section is reported as 431.31 ± 0.85 Å² under setting [17] and 523.98 ± 3.9 Å² under setting [18].

Take “VPTTEKPTVTVNFR [_VPTTEK(Malonyl)PTVTVNFR_]”: the collision cross section is given as 427.18 ± 3.1 Å² under setting [19] and 511.14 ± 0.89 Å² (charge state: 3, modification: Malonyl). In the case of “VPTTEKPTVTVNFR [_VPTTEK(Methyl (K))PTVTVNFR_]”, the collision cross section reads like this: under setting [20], 426.88 Å²; under setting [21], 510.49 ± 2 Å². Take “VPTTEKPTVTVNFR [_VPTTEK(Succinyl)PTVTVNFR_]”: the collision cross section runs as follows: under setting [1], 427.05 ± 0.52 Å²; under setting [22], 513.15 ± 2.5 Å². In turn, “VPTTEKPTVTVNFR [_VPTTEK(Trimethyl (K))PTVTVNFR_]” came in with a collision cross section under setting [3] of 499.21 ± 1.6 Å². For “VPTTEKPTVTVNFR [_VPTTEK(hydroxyisobutyryl)PTVTVNFR_]”, the collision cross section is 429.55 ± 0.83 Å² under setting [4] and 512.54 ± 2 Å² under setting [23]. As for VQFAPEK [_VQFAP(Hydroxyproline)EK_], under setting [24], the collision cross section is reported as 316.39 ± 1.9 Å².

“VQFAPEKPGPQPSAETTR [_VQFAPEKPGP(Hydroxyproline)QPSAETTR_]” came in with a collision cross section under setting [25] of 515.21 ± 1.2 Å².

Take “VQGGALEDSQLVAGVAFKK [_VQGGALEDSQLVAGVAFK(Acetyl (K))K_]”: the collision cross section under setting [5] is on record as 468.5 Å² and the collision cross section under setting [6] is 554.41 Å².

“VQGGALEDSQLVAGVAFKK [_VQGGALEDSQLVAGVAFK(Dimethyl (K))K_]” came in with a collision cross section under setting [12] of 554.94 ± 0.79 Å².

Regarding “VQGGALEDSQLVAGVAFKK [_VQGGALEDSQLVAGVAFK(Gluratylation)K_]”, the collision cross section under setting [15] is recorded as 484.97 ± 2 Å² and the collision cross section under setting [16] worked out at 564.26 Å². On to “VQGGALEDSQLVAGVAFKK [_VQGGALEDSQLVAGVAFK(GlyGly (K))K_]”, for which the collision cross section runs as follows: under setting [17], 504.45 ± 0.061 Å²; under setting [18], 565.73 ± 1.7 Å².

On to “VQGGALEDSQLVAGVAFKK [_VQGGALEDSQLVAGVAFK(Methyl (K))K_]”, for which the collision cross section was found to be 497.72 Å² under setting [20] and 546.3 ± 1.2 Å² under setting [21]. “VQGGALEDSQLVAGVAFKK [_VQGGALEDSQLVAGVAFK(Succinyl)K_]”: under setting [1], the collision cross section turned out to be 480.13 ± 1.2 Å². With “VQGGALEDSQLVAGVAFKK [_VQGGALEDSQLVAGVAFK(Trimethyl (K))K_]”, the collision cross section under setting [2] is reported as 515.46 ± 1.1 Å² and the collision cross section under setting [3] came out at 564.46 ± 0.92 Å².
